The experiment concerns the target minimally biotinylated GLMN (wild-type) (human, UniProt Q92990 1-594, minimally biotinylated). In words: SPR.

Sequence of minimally biotinylated GLMN (wild-type) (Q92990 whole entry): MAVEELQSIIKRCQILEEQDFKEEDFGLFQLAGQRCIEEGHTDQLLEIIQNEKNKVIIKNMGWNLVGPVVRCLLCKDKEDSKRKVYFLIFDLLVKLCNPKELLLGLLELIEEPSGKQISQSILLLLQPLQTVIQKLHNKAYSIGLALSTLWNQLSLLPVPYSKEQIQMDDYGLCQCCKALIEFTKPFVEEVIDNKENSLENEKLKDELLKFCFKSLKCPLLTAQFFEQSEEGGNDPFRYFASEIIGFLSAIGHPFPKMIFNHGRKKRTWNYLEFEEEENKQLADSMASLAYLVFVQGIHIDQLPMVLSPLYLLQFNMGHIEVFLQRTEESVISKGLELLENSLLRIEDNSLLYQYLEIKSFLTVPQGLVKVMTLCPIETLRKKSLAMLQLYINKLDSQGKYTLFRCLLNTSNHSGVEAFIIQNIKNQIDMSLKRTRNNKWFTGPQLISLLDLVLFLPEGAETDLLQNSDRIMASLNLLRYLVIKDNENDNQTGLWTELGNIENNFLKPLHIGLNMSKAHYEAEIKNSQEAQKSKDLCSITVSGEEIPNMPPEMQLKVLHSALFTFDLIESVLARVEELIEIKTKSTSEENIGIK

B1: isolated RBX1 RING domain (domain or fragment)
chain: not shown
In turn, B1 yielded a Kd of 38.6 nM. That is a double-digit nanomolar value.

The values above are taken from publication PMC3477590 (Molecular cell, 2012).
